The values below come from paper PMC9438502, “Complementarity of neutron, XFEL and synchrotron crystallography for defining the structures of metalloenzymes at room temperature” (IUCrJ, 2022).

This series concerns the molecule itself. The experiment in a line: crystal structure; room-temperature crystals of DHP-B, space group P2(1)2(1)2(1); neutron, in-house X-ray, SFX, SSX and serial Laue data; two protomers (A, B) in the asymmetric unit.

B1: dehaloperoxidase B (enzyme, Amphitrite ornata)
chain: MGFKQDIATLRGDLRTYAQDIFLAFLNKYPDEKRNFKNYVGKSDQELKSMAKFGDHTEKVFNLMMEVADRATDCVPLASDASTLVQMKQHSGLTTGNFEKLFVALVEYMRASGQSFDSQSWDRFGKNLVSALSSAGMK
notes: dehaloperoxidase B (DHP-B), heme-containing coelomic hemoglobin of the marine annelid Amphitrite ornata; 274 protein residues modelled for the two protomers of the asymmetric unit; Heme protein, ferric or oxyferrous; The crystal for NX and NX-Xray was perdeuterated (97% deuteration level); the other crystals were protiated; also called DHP-B; dehaloperoxidase isoenzyme B; source: E. coli …
Regarding B1, the binding result was “binds”.
